{
  "source": "paper PMC7693655",
  "about": "“The Partner Switching System of the SigF Sigma Factor in Mycobacterium smegmatis and Induction of the SigF Regulon Under Respiration-Inhibitory Conditions” (Frontiers in Microbiology, 2020)",
  "molecules": {"B1": {"name": "C-terminally His6-tagged WT RsfB (MSMEG_6127) purified from E. coli (natural protein, M. smegmatis, UniProt A0R5B0 1-119, looked up)", "chain": "MTSQDPANCTVEERRVGDITVVAVTGTVDMLTAPKLEDAIGSAAKSEPSAVVVDLSAVDFLASAGMGVLVAAHGELAPAVRLVVVADGPATSRPLKLVGIADVVDLFATLDEALSSLKT", "notes": "Anti-SigF antagonist RsfB of Mycobacterium smegmatis, locus MSMEG_6127; unphosphorylated when made in E. coli; also called RsfB-His6; source: E. coli BL21 (DE3) with pT7-7rsfB, purified (Ni-Sepharose twice, PD-10 desalting)"}},
  "key": {"[1]": {"target": "RsbW1 (MSMEG_1803), purified from E. coli (pT7-7rsbW1) (M. smegmatis) (UniProt A0QTD7)", "experiment": "native gel or EMSA; non-denaturing PAGE, CBB stain; 160 pmol RsbW1 mixed with increasing amounts of WT, S63A or S63E RsfB in binding buffer [40 mM Tris-HCl (pH 8.0), 0.01 mM EDTA, 10 mM MgCl2, 20% (v/v) glycerol], 30 min at 25°C"}, "[2]": {"target": "T1, RsbW1 (MSMEG_1803), purified from E. coli (pT7-7rsbW1) (M. smegmatis, UniProt A0QTD7 1-138)", "T1 construct": "Anti-sigma factor RsbW1 of Mycobacterium smegmatis, locus MSMEG_1803, 138 amino acids; also called purified RsbW1; source: E. coli BL21 (DE3) with pT7-7rsbW1, purified (Ni-Sepharose)", "T1 sequence (looked up)": "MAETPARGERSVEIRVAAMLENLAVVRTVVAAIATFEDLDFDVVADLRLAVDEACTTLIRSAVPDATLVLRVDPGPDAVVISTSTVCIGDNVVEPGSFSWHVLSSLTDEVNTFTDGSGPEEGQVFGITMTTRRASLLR", "experiment": "native gel or EMSA; non-denaturing PAGE, CBB stain; 160 pmol RsbW1 mixed with increasing amounts of WT, S63A or S63E RsfB in binding buffer [40 mM Tris-HCl (pH 8.0), 0.01 mM EDTA, 10 mM MgCl2, 20% (v/v) glycerol], 30 min at 25°C", "details": "both partners purified"}},
  "data": [
    {"molecule": "C-terminally His6-tagged S63A RsfB purified from E. coli (natural protein)", "values": [
      {"measurement": "stoichiometry N", "setting": "[1]", "value": 1}
    ]},
    {"molecule": "B1", "values": [
      {"measurement": "stoichiometry N", "setting": "[2]", "value": 1}
    ]}
  ]
}
